Reference: paper PMC4072592

Assays:
[1] = target: ΔC-PYM-GFP (S2 cells) (Drosophila); assay: co-IP + cross-linking; as the native GFP-Trap IP from S2 cell extracts, but extracts cross-linked with 1 mM DSP for 1 h at 4°C before the IP; blots quantified by densitometry
[2] = target: N-PYM-GFP (S2 cells) (Drosophila) (UniProt P82804); assay: as above
[3] = target: N-PYM-GFP (S2 cells) (Drosophila) (UniProt P82804); assay: co-IP; GFP-Trap beads on cytoplasmic extracts of S2 cells expressing GFP or GFP-tagged FL-, ΔC- or N-PYM, native conditions; blots of Mago and Y14 quantified by densitometry, coIP efficiency as percent of the GFP enrichment

Sequence of Y14-Mago heterodimer, endogenous in S2 cells (Q9V535 whole entry): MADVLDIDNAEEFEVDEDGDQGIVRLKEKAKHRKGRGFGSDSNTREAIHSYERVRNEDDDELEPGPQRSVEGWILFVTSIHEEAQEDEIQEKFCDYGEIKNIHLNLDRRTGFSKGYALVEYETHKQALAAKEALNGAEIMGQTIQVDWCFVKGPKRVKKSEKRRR
Sequence of Y14-Mago heterodimer, endogenous in S2 cells (P49028 whole entry): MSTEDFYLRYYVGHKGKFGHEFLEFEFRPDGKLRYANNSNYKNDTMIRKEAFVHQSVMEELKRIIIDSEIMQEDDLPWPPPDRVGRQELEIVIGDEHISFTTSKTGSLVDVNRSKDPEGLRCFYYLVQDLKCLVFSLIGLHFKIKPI
Sequence of ΔC-PYM-GFP (S2 cells) (Drosophila) (P82804 whole entry, stated change not applied): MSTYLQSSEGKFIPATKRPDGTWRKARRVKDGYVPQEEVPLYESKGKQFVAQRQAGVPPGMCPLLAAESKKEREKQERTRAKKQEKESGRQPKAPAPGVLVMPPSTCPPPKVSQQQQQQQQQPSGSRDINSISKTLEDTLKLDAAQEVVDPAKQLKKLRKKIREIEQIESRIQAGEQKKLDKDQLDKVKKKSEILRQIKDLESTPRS
Sequence of N-PYM-GFP (S2 cells) (Drosophila) (P82804 whole entry): as the sequence (P82804 whole entry, stated change not applied) above

coIP efficiency of Mago (percent of the GFP enrichment), DSP cross-linked [1]: 98.9%
fold increase of binding upon DSP treatment against native [1]: 3.6 fold
coIP efficiency of Mago (percent of the GFP enrichment), DSP cross-linked [2]: 84.9%
coIP efficiency of Mago (percent of the GFP enrichment), native [3]: 0.92%
Substance: Y14-Mago heterodimer, endogenous in S2 cells (from UniProt Q9V535 1-165; P49028 1-147) (complex)
